Results reported in US20120282619.

Assays:
[1] = target: T1, GTPase regulator associated with FAK (GRAF), Q9UNA1
T1 chain: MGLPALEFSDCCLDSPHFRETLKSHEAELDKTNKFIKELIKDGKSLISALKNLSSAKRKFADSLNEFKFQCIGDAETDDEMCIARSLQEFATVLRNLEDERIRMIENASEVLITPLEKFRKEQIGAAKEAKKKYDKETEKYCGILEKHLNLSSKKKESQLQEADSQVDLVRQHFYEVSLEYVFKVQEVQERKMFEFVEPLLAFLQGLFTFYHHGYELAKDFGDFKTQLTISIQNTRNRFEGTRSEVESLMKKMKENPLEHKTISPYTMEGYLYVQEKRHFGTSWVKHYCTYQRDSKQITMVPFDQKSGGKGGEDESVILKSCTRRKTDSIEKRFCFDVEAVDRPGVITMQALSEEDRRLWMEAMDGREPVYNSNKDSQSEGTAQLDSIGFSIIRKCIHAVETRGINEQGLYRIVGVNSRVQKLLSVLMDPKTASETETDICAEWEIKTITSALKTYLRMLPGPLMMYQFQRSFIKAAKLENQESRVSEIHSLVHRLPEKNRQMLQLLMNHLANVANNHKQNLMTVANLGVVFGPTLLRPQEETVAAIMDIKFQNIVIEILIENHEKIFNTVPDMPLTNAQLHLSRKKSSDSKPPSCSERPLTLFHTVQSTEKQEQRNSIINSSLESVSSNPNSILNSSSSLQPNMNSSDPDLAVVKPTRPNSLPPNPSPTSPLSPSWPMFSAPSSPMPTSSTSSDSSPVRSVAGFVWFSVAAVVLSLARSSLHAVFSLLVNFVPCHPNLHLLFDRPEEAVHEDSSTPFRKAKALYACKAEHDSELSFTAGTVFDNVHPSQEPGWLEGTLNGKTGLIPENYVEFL

p190RhoGAP, Q9NRY4 = target: T2, p190RhoGAP, Q9NRY4
T2 chain: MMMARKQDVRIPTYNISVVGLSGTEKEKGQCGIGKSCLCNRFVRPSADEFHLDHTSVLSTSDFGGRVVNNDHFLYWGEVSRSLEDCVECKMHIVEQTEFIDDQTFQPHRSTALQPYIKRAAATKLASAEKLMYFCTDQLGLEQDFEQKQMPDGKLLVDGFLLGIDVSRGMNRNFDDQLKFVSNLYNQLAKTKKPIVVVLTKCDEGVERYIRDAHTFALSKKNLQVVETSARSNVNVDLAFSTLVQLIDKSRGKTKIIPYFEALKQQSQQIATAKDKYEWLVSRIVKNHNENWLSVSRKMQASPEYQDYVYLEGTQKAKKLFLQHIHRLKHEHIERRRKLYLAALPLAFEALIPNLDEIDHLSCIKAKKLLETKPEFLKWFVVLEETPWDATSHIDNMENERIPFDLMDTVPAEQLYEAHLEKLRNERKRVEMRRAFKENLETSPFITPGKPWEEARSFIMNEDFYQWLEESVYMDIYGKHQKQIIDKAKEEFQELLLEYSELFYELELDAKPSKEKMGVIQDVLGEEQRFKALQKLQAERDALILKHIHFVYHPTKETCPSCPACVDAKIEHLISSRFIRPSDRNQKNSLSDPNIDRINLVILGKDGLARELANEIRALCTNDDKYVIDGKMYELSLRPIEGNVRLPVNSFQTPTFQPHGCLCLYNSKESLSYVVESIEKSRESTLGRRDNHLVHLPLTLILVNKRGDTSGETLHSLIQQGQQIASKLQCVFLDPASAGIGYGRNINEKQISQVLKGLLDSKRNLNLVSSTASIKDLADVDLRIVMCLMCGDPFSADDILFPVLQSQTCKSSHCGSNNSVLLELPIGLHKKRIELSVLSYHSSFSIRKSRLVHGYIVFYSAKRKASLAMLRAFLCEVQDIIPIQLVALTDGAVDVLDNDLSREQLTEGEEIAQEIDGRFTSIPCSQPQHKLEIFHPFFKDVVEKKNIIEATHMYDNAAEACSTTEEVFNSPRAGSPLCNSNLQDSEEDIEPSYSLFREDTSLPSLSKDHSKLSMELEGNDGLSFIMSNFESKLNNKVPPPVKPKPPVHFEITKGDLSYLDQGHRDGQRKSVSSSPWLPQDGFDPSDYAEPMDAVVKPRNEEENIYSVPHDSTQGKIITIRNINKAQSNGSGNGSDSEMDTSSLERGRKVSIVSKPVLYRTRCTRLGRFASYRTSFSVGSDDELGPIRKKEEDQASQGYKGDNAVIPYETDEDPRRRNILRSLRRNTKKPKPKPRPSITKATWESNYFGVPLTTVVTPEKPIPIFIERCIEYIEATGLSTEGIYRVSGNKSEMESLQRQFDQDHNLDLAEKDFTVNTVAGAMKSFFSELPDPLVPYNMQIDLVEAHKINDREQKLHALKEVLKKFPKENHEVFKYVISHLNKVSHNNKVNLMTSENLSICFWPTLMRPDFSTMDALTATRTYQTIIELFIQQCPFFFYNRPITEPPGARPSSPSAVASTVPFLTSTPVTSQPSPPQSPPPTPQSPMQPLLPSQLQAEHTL

B1: focal adhesion kinase (FAK) (protein)
chain: AAAYLDPNLNHTPNSSTKTHLGTGMERSPGAMERVLKVFHYFESNSEPTTWASIIRHGDATDVRGIIQKIVDSHKVKHVACYGFRLSHLRSEEVHWLHVDMGVSSVREKYELAHPPEEWKYELRIRYLPKGFLNQFTEDKPTLNFFYQQVKSDYMLEIADQVDQEIALKLGCLEIRRSYWEMRGNALEKKSNYEVLEKDVGLKRFFPKSLLDSVKAKTLRKLIQQTFRQFANLNREESILKFFEILSPVYRFDKECFKCALGSSWIISVELAIGPEEGISYLTDKGCNPTHLADFTQVQTIQYSNSEDKDRKGMLQLKIAGAPEPLTVTAPSLTIAENMADLIDGYCRLVNGTSQSFIIRPQKEGERALPSIPKLANSEKQGMRTHAVSVSETDDYAEIIDEEDTYTMPSTRDYEIQRERIELGRCIGEGQFGDVHQGIYMSPENPALAVAIKTCKNCTSDSVREKFLQEALTMRQFDHPHIVKLIGVITENPVWIIMELCTLGELRSFLQVRKYSLDLASLILYAYQLSTALAYLESKRFVHRDIAARNVLVSSNDCVKLGDFGLSRYMEDSTYYKASKGKLPIKWMAPESINFRRFTSASDVWMFGVCMWEILMHGVKPFQGVKNNDVIGRIENGERLPMPPNCPPTLYSLMTKCWAYDPSRRPRFTELKAQLSTILEEEKAQQEERMRMESRRQATVSWDSGGSDEAPPKPSRPGYPSPRSSEGFYPSPQHMVQTNHYQVSGYPGSHGITAMAGSIYPGQASLLDQTDSWNHRPQEIAMWQPNVEDSTVLDLRGIGQVLPTHLMEERLIRQQQEMEEDQRWLEKEERFLKPDVRLSRGSIDREDGSLQGPIGNQHIYQPVGKPDPAAPPKKPPRPGAPGHLGSLASLSSPADSYNEGVKLQPQEISPPPTANLDRSNDKVYENVTGLVKAVIEMSSKIQPAPPEEYVPMVKEVGLALRTLLATVDETIPLLPASTHREIEMAQKLLNSDLGELINKMKLAQQYVMTSLQQEYKKQMLTAAHALAVDAKNLLDVIDQARLKMLGQTRPH
RhoA activity [1]: TM4SF5 expressed in SNU449 cells inhibited RhoA activity, leading to the elongation of cells | RhoA activity (p190RhoGAP, Q9NRY4): TM4SF5 expressed in SNU449 cells inhibited RhoA activity, leading to the elongation of cells
